Series [1] deals with HeLa Kyoto. Nature of the series: thermal stability score vs G1/S (z-score of summed log2 fold changes over temperatures); higher = more thermally stable than in G1/S.
For series [2], the system named is HeLa Kyoto. As to the kind of experiment: solubility in G1/S (NP-40 vs SDS abundance) (log2 ratio); higher = more soluble. As to conditions: cell cycle stage: G1/S.
Series [3] concerns HeLa Kyoto. Nature of the series: melting temperature (median over replicates), in situ; higher = more thermally stable.
For series [4], the system named is HeLa Kyoto. Nature of the series: solubility change mitosis vs G1/S (difference of NP-40 vs SDS log2 ratios) (log2 ratio difference); higher = more soluble in mitosis.
The mark [5] stands for this setting: cell cycle stage: early G1 (4.5 h after nocodazole release).
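For melting temperature (median over replicates), in situ in this document: HeLa Kyoto cells synchronized by double thymidine or nocodazole block, proteins quantified by TMT10plex mass spectrometry, three independent biological replicates.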
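For solubility change mitosis vs G1/S (difference of NP-40 vs SDS log2 ratios) in this document: synchronized HeLa Kyoto cells (double thymidine block for G1/S, nocodazole release for mitosis), protein amounts in NP-40 versus SDS lysates quantified by mass spectrometry, three biological replicates.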
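For solubility in G1/S (NP-40 vs SDS abundance) in this document: HeLa Kyoto cells arrested at G1/S by double thymidine block, proteins quantified by TMT10plex mass spectrometry in mild NP-40 versus SDS extracts, three biological replicates.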
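For thermal stability score vs G1/S (z-score of summed log2 fold changes over temperatures) in this document: synchronized HeLa Kyoto cells, proteins quantified by TMT10plex mass spectrometry, three biological replicates, mitosis taken 0.5 h after nocodazole release, G1/S directly after double thymidine block.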

As for “MAENPSLENHRIKSFKNKGRDVETMRRHRNEVTVELRKNKRDEHLLKKRNVPQEESLEDSDVDADFKAQNVTLEAILQNATSDNPVVQLSAVQAARKLLSSDRNPPIDDLIKSGILPILVKCLERDDNPSLQFEAAWALTNIASGTSAQTQAVVQSNAVPLFLRLLRSPHQNVCEQAVWALGNIIGDGPQCRDYVISLGVVKPLLSFISPSIPITFLRNVTWVIVNLCRNKDPPPPMETVQEILPALCVLIYHTDINILVDTVWALSYLTDGGNEQIQMVIDSGVVPFLVPLLSHQEVKVQTAALRAVGNIVTGTDEQTQVVLNCDVLSHFPNLLSHPKEKINKEAVWFLSNITAGNQQQVQAVIDAGLIPMIIHQLAKGDFGTQKEAAWAISNLTISGRKDQVEYLVQQNVIPPFCNLLSVKDSQVVQVVLDGLKNILIMAGDEASTIAEIIEECGGLEKIEVLQQHENEDIYKLAFEIIDQYFSGDDIDEDPCLIPEATQGGTYNFDPTANLQTKEFNF [KPNA3]”, the thermal stability score is 1.67 in the series on HeLa Kyoto [1] (setting [5]) and 4.62 in the series on HeLa Kyoto [1] (cell cycle stage: mitosis). The “solubility in G1/S (log2)” value in the series on HeLa Kyoto [2] turned out to be 0.128. The figures for the melting temperature in the series on HeLa Kyoto [3] (cell cycle stage: G1/S) and with HeLa Kyoto [3] (cell cycle stage: mitosis) were 49 °C and 50.5 °C, respectively. In addition, in the series with HeLa Kyoto [4], the “solubility change mitosis (log2)” value is -0.0814.

Consider “MAEPLQPDPGAAEDAAAQAVETPGWKAPEDAGPQPGSYEIRHYGPAKWVSTSVESMDWDSAIQTGFTKLNSYIQGKNEKEMKIKMTAPVTSYVEPGSGPFSESTITISLYIPSEQQFDPPRPLESDVFIEDRAEMTVFVRSFDGFSSAQKNQEQLLTLASILREDGKVFDEKVYYTAGYNSPVKLLNRNNEVWLIQKNEPTKENE [HEBP2]”, for which the thermal stability score was 0.153 in the series on HeLa Kyoto [1] (setting [5]) and -0.49 in the series on HeLa Kyoto [1] (cell cycle stage: mitosis). For the same sequence, the “solubility in G1/S (log2)” value in the series with HeLa Kyoto [2] stood at 0.297. The results for the melting temperature in the series with HeLa Kyoto [3] (cell cycle stage: G1/S) and with HeLa Kyoto [3] (cell cycle stage: mitosis) were 53.1 °C and 53.6 °C, respectively. Moreover, the “solubility change mitosis (log2)” value with HeLa Kyoto [4] is -0.0442.

As for “MAEPQPPSGGLTDEAALSCCSDADPSTKDFLLQQTMLRVKDPKKSLDFYTRVLGMTLIQKCDFPIMKFSLYFLAYEDKNDIPKEKDEKIAWALSRKATLELTHNWGTEDDETQSYHNGNSDPRGFGHIGIAVPDVYSACKRFEELGVKFVKKPDDGKMKGLAFIQDPDGYWIEILNPNKMATLM [GLO1]”, the thermal stability score in the series with HeLa Kyoto [1] (setting [5]) is -0.959; with HeLa Kyoto [1] (cell cycle stage: mitosis) it was -4.08. Besides, the “solubility in G1/S (log2)” value in the series on HeLa Kyoto [2] is 0.117. Moreover, the melting temperature with HeLa Kyoto [3] (cell cycle stage: G1/S) was 55.8 °C; in the series with HeLa Kyoto [3] (cell cycle stage: mitosis) it was 54.5 °C. The “solubility change mitosis (log2)” value with HeLa Kyoto [4] amounted to 0.168.

For “MAEPVGKRGRWSGGSGAGRGGRGGWGGRGRRPRAQRSPSRGTLDVVSVDLVTDSDEEILEVATARGAADEVEVEPPEPPGPVASRDNSNSDSEGEDRRPAGPPREPVRRRRRLVLDPGEAPLVPVYSGKVKSSLRLIPDDLSLLKLYPPGDEEEAELADSSGLYHEGSPSPGSPWKTKLRTKDKEEKKKTEFLDLDNSPLSPPSPRTKSRTHTRALKKLSEVNKRLQDLRSCLSPKPPQGQEQQGQEDEVVLVEGPTLPETPRLFPLKIRCRADLVRLPLRMSEPLQSVVDHMATHLGVSPSRILLLFGETELSPTATPRTLKLGVADIIDCVVLTSSPEATETSQQLQLRVQGKEKHQTLEVSLSRDSPLKTLMSHYEEAMGLSGRKLSFFFDGTKLSGRELPADLGMESGDLIEVWG [NFATC2IP]”, the results for the thermal stability score in the series on HeLa Kyoto [1] (setting [5]) and in the series on HeLa Kyoto [1] (cell cycle stage: mitosis) were 2.45 and 4.3, respectively. Also, the “solubility in G1/S (log2)” value in the series on HeLa Kyoto [2] is 0.318. The melting temperature in the series on HeLa Kyoto [3] (cell cycle stage: G1/S) was 48.7 °C; in the series on HeLa Kyoto [3] (cell cycle stage: mitosis), 51.5 °C. Further, the “solubility change mitosis (log2)” value with HeLa Kyoto [4] is -0.0384.

As for “MAERKPNGGSGGASTSSSGTNLLFSSSATEFSFNVPFIPVTQASASPASLLLPGEDSTDVGEEDSFLGQTSIHTSAPQTFSYFSQVSSSSDPFGNIGQSPLTTAATSVGQSGFPKPLTALPFTTGSQDVSNAFSPSISKAQPGAPPSSLMGINSYLPSQPSSLPPSYFGNQPQGIPQPGYNPYRHTPGSSRANPYIAPPQLQQCQTPGPPAHPPPSGPPVQMYQMPPGSLPPVPSSVQSPAQQQVPARPGAPSVQVPSPFLLQNQYEPVQPHWFYCKEVEYKQLWMPFSVFDSLNLEEIYNSVQPDPESVVLGTDGGRYDVYLYDRIRKAAYWEEEPAEVRRCTWFYKGDTDSRFIPYTEEFSEKLEAEYKKAVTTNQWHRRLEFPSGETIVMHNPKVIVQFQPSSVPDEWGTTQDGQTRPRVVKRGIDDNLDEIPDGEMPQVDHLVFVVHGIGPVCDLRFRSIIECVDDFRVVSLKLLRTHFKKSLDDGKVSRVEFLPVHWHSSLGGDATGVDRNIKKITLPSIGRFRHFTNETLLDILFYNSPTYCQTIVEKVGMEINHLHALFMSRNPDFKGGVSVAGHSLGSLILFDILSNQKDLNLSKCPGPLAVANGVVKQLHFQEKQMPEEPKLTLDESYDLVVENKEVLTLQETLEALSLSEYFSTFEKEKIDMESLLMCTVDDLKEMGIPLGPRKKIANFVEHKAAKLKKAASEKKAVAATSTKGQEQSAQKTKDMASLPSESNEPKRKLPVGACVSSVCVNYESFEVGAGQVSVAYNSLDFEPEIFFALGSPIAMFLTIRGVDRIDENYSLPTCKGFFNIYHPLDPVAYRLEPMIVPDLDLKAVLIPHHKGRKRLHLELKESLSRMGSDLKQGFISSLKSAWQTLNEFARAHTSSTQLQEELEKVANQIKEEEEKQVVEAEKVVESPDFSKDEDYLGKVGMLNGGRRIDYVLQEKPIESFNEYLFALQSHLCYWESEDTALLLLKEIYRTMNISPEQPQH [SEC23IP]”, the thermal stability score was -1.73 with HeLa Kyoto [1] (setting [5]) and -1.12 in the series on HeLa Kyoto [1] (cell cycle stage: mitosis). The “solubility in G1/S (log2)” value with HeLa Kyoto [2] came out at 0.171. In addition, the melting temperature in the series on HeLa Kyoto [3] (cell cycle stage: G1/S) was found to be 50.5 °C; in the series with HeLa Kyoto [3] (cell cycle stage: mitosis), 50.3 °C. The “solubility change mitosis (log2)” value in the series with HeLa Kyoto [4] was -0.197.

Values taken from the supplement of paper PMC5998384.
